Experimental data from paper PMC9482650, “Quantitative fragmentomics allow affinity mapping of interactomes” (Nature Communications, 2022).
Each block holds one binder with its values, some of them ahead of it.

Columns and labels:
Experiment in all cases: holdup assay
Parameters in all cases: key: below the threshold = too weak to quantify, mostly under pKd 3.1 to 4
[1] = molecular target: T1, NHERF3_1, Q5T2W1
T1 sequence (Q5T2W1 4-100, limits assumed, looked up): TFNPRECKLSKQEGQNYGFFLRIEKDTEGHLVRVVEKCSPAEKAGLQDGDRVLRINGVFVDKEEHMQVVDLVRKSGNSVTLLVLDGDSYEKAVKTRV

[2] = molecular target: T2, DLG3_1, Q92796
T2 sequence (Q92796 125-227, limits assumed, looked up): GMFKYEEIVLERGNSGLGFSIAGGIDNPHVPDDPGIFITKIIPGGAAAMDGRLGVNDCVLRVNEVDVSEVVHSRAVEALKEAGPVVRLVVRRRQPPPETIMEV

[3] = molecular target: NHERF4_1, Q86UT5-2
[4] = molecular target: T3, MPDZ_10, O75970
T3 sequence (O75970 1624-1722, limits assumed, looked up): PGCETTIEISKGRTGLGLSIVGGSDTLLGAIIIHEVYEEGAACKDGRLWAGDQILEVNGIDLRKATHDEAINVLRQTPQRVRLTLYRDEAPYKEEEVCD

[5] = molecular target: PICK1, Q9NRD5
[6] = molecular target: T4, HTRA3, P83110
T4 sequence (P83110 354-453, limits assumed, looked up): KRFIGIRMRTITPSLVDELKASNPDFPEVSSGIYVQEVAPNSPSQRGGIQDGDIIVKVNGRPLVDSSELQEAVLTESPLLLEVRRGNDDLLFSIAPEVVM

[7] = molecular target: T5, NHERF3_3, Q5T2W1
T5 sequence (Q5T2W1 238-333, limits assumed, looked up): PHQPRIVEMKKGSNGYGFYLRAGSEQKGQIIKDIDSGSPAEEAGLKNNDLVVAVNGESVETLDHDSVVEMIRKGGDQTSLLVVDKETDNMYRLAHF

[8] = molecular target: MAGI1_2, Q96QZ7
[9] = molecular target: LNX1_2, Q8TBB1
[10] = molecular target: Inadl_2, Q8NI35
[11] = molecular target: SCRIB_3, Q14160
[12] = molecular target: T6, MPP6, Q9NZW5
T6 sequence (Q9NZW5 125-219, limits assumed, looked up): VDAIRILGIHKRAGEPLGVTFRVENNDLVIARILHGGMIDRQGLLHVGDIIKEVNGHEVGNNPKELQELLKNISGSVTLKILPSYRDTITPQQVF

[13] = molecular target: PDLIM1, O00151
[14] = molecular target: AHNAK1, Q09666
[15] = molecular target: Inadl_9, Q8NI35
[16] = molecular target: NOS1, P29475
[17] = molecular target: T7, TJP3_3, O95049
T7 sequence (O95049 375-456, limits assumed, looked up): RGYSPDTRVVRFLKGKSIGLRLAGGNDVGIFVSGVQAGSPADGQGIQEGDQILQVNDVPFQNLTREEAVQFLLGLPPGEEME

[18] = molecular target: T8, APBA2_1, Q99767
T8 sequence (Q99767 563-664, limits assumed, looked up): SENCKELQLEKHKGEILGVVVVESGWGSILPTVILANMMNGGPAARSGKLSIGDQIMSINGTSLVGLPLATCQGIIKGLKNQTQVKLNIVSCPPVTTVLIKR

[19] = molecular target: T9, DFNB31_3, Q9P202
T9 sequence (Q9P202 811-907, limits assumed, looked up): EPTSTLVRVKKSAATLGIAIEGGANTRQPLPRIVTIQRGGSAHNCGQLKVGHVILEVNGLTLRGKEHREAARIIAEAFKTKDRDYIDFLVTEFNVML

[20] = molecular target: GORASP1, Q9BQQ3
[21] = molecular target: T10, RAPGEF6, Q8TEU7
T10 sequence (Q8TEU7 525-625, limits assumed, looked up): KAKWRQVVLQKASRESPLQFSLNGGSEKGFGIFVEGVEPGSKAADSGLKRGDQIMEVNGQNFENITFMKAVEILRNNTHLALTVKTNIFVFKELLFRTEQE

[22] = molecular target: DLG1_3, Q12959
[23] = molecular target: LDB3, O75112
[24] = molecular target: DLG1_2, Q12959
[25] = molecular target: T11, SNTA1, Q13424
T11 sequence (Q13424 82-180, limits assumed, looked up): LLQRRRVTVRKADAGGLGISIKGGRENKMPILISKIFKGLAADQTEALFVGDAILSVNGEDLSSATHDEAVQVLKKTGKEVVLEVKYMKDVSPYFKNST

[26] = molecular target: T12, LNX2_2, Q8N448
T12 sequence (Q8N448 334-432, limits assumed, looked up): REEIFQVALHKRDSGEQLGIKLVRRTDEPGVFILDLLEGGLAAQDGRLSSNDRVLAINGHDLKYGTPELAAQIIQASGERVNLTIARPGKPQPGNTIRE

[27] = plain residues with an end cap or a label only (N-terminal biotin on a linker: ado-ado)
[28] = plain residues with an end cap or a label only (N-terminal biotin on a linker: ahx)

Chain of Inadl_2, Q8NI35 (Q8NI35 238-335): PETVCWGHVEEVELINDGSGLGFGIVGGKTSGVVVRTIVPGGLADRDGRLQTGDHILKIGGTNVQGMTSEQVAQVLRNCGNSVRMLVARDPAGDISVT
Chain of NHERF4_1, Q86UT5-2 (Q86UT5 other isoform, or with tags, fused parts or gaps): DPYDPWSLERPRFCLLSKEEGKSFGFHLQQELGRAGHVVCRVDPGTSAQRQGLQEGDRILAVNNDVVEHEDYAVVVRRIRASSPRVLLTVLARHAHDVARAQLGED
Chain of Inadl_9, Q8NI35 (Q8NI35 1530-1615): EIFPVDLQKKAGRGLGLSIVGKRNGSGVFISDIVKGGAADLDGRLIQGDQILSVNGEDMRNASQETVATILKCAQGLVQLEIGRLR
Chain of LNX1_2, Q8TBB1 (Q8TBB1 371-470): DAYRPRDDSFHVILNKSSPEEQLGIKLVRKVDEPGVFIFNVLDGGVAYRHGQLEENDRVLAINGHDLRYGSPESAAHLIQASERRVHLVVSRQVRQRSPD
Chain of SCRIB_3, Q14160 (Q14160 999-1103): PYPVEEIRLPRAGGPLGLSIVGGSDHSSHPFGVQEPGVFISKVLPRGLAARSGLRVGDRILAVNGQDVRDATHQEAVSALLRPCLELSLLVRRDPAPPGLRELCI
Chain of DLG1_3, Q12959 (Q12959 457-571): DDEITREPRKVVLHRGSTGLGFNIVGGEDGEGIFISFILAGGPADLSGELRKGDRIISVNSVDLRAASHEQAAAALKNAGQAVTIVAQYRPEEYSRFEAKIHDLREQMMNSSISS
Chain of PDLIM1, O00151 (O00151 1-87): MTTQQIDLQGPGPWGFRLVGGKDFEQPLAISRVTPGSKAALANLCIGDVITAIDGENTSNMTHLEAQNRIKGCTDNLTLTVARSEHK
Chain of DLG1_2, Q12959 (Q12959 314-412): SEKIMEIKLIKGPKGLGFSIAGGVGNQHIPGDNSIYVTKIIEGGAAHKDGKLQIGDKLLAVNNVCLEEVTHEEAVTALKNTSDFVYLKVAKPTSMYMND
Chain of NOS1, P29475 (P29475 9-101): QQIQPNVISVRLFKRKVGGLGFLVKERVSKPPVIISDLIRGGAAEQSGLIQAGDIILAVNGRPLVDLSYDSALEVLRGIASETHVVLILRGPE
Chain of GORASP1, Q9BQQ3 (Q9BQQ3 1-208): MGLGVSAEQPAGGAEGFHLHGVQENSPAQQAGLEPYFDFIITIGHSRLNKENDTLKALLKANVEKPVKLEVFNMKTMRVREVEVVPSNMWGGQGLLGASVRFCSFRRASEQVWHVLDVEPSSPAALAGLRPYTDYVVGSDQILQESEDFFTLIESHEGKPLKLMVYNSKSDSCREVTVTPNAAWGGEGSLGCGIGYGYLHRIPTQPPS
Chain of AHNAK1, Q09666 (Q09666 4-100): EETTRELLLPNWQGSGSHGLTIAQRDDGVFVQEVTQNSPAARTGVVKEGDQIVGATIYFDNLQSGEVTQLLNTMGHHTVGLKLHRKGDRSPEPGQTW
Chain of LDB3, O75112 (O75112 1-94): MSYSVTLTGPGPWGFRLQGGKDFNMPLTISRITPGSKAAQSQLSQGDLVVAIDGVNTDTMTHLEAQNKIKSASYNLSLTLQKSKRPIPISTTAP
Chain of PICK1, Q9NRD5 (Q9NRD5 17-115): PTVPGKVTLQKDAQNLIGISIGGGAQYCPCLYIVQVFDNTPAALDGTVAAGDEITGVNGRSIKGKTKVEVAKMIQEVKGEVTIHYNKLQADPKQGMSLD
Chain of MAGI1_2, Q96QZ7 (Q96QZ7 456-580): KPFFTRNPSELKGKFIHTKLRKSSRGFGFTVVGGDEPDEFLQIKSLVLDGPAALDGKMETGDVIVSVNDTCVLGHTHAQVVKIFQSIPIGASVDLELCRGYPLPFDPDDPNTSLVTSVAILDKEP

pKd [1, 27]: 3.71
pKd [2, 27]: below the threshold
pKd [3, 27]: below the threshold
pKd [4, 27]: below the threshold
pKd [5, 27]: 4.18
pKd [6, 27]: 3.61
pKd [7, 27]: below the threshold
pKd [8, 27]: below the threshold
pKd [9, 27]: 3.77
pKd [10, 27]: below the threshold
pKd [11, 27]: below the threshold
pKd [12, 27]: below the threshold
pKd [13, 27]: below the threshold
pKd [14, 27]: below the threshold
pKd [15, 27]: below the threshold
pKd [16, 27]: 3.62
pKd [17, 27]: below the threshold
pKd [18, 27]: below the threshold
pKd [19, 27]: 4.07
pKd [20, 27]: below the threshold
pKd [21, 27]: below the threshold
pKd [22, 27]: below the threshold
pKd [23, 27]: below the threshold
pKd [24, 27]: below the threshold
pKd [25, 27]: below the threshold
pKd [26, 27]: 4.09
Binder: MHIQEKGFHV [EPHA6, Q9UF33]

pKd [1, 28]: below the threshold
pKd [2, 28]: below the threshold
pKd [3, 28]: below the threshold
pKd [4, 28]: below the threshold
pKd [5, 28]: below the threshold
pKd [6, 28]: below the threshold
pKd [7, 28]: below the threshold
pKd [8, 28]: below the threshold
pKd [9, 28]: below the threshold
pKd [10, 28]: below the threshold
pKd [11, 28]: below the threshold
pKd [12, 28]: below the threshold
pKd [13, 28]: below the threshold
pKd [14, 28]: below the threshold
pKd [15, 28]: below the threshold
pKd [16, 28]: below the threshold
pKd [17, 28]: below the threshold
pKd [18, 28]: below the threshold
pKd [19, 28]: below the threshold
pKd [20, 28]: below the threshold
pKd [21, 28]: below the threshold
pKd [22, 28]: below the threshold
pKd [23, 28]: below the threshold
pKd [24, 28]: below the threshold
pKd [25, 28]: below the threshold
pKd [26, 28]: below the threshold
Binder: EKQAKGDTEF [CACYBP, Q9HB71]

pKd [1, 27]: 3.89
pKd [2, 27]: below the threshold
pKd [3, 27]: 3.89
pKd [4, 27]: below the threshold
pKd [5, 27]: below the threshold
pKd [6, 27]: 4.68
pKd [7, 27]: below the threshold
pKd [8, 27]: below the threshold
pKd [9, 27]: below the threshold
pKd [10, 27]: 4.09
pKd [11, 27]: 3.96
pKd [12, 27]: 4.05
pKd [13, 27]: below the threshold
pKd [14, 27]: below the threshold
pKd [15, 27]: below the threshold
pKd [16, 27]: 4
pKd [17, 27]: 3.6
pKd [18, 27]: 3.61
pKd [19, 27]: 4.16
pKd [20, 27]: 4.08
pKd [21, 27]: 3.61
pKd [22, 27]: 3.64
pKd [23, 27]: below the threshold
pKd [24, 27]: below the threshold
pKd [25, 27]: below the threshold
pKd [26, 27]: 3.7
Binder: SLNANEVEWF [RNF130, Q86XS8]
